For two substances, displacement of radiolabelled GnRH as percent of the cpm displaced by native GnRH, killing of bovine granulosa cells (Trypan Blue exclusion) (fold of the cells killed by hecate alone) and killing of bovine small luteal cells (Trypan Blue exclusion) (fold of the cells killed by hecate alone) results are on record in patent publication EP0975354B1.

The target in assay [1] is GnRH receptor of rat pituitary membranes (rat) (UniProt P30969). The assay can be described thus: radioligand displacement on rat pituitary membranes, equimolar concentrations; reference native GnRH. In general terms: In a radioligand displacement assay an active substance lowers the binding of a labelled ligand.
In assay [2] the target is LH receptor on bovine granulosa cells and small luteal cells (bovine) (UniProt Q28005). The assay is described as follows: cell-based or functional assay.
Sequence of UniProt Q28005 (Q28005 27-701): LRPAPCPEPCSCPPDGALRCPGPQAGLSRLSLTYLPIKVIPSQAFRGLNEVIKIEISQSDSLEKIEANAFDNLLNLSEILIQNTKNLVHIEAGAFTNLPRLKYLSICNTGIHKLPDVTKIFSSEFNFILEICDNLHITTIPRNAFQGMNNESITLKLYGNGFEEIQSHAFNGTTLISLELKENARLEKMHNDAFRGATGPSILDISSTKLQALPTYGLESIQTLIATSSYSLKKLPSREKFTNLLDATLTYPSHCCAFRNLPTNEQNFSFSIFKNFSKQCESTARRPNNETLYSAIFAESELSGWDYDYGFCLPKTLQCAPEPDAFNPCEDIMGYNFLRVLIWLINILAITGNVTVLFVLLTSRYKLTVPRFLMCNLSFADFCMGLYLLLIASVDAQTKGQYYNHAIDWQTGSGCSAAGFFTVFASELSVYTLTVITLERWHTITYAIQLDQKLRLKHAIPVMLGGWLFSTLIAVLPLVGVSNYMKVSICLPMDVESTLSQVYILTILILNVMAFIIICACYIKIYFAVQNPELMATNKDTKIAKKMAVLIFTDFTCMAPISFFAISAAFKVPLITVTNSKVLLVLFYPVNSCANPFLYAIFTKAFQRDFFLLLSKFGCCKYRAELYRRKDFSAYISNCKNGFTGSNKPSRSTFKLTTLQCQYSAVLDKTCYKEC

Sequence of UniProt P30969 (P30969 whole entry): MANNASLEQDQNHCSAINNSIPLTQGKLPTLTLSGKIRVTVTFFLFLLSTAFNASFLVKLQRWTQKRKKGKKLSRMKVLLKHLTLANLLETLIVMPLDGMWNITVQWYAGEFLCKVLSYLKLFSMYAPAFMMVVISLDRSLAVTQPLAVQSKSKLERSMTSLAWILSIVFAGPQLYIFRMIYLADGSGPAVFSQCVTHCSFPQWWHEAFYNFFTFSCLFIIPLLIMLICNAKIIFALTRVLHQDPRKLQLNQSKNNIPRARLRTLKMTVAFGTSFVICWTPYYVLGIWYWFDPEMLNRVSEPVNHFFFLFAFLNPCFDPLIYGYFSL

D-Lys6GnRH (peptide): the displacement of radiolabelled GnRH as percent of the cpm displaced by native GnRH in assay [1] worked out at 187%.
For hecate-bLH conjugate (peptide), in assay [2], the killing of bovine granulosa cells (Trypan Blue exclusion) (fold of the cells killed by hecate alone) was 2 and the killing of bovine small luteal cells (Trypan Blue exclusion) (fold of the cells killed by hecate alone) was determined as 2.
